In the DeepSol protein solubility set:

test: soluble on expression in E. coli; label from the status in PepcDB or PDB records

Sequence | soluble on expression in E. coli
MAHHHHHHMQKTILQILREQDDASSSCVLALLKGNASFQCLSKSEGEDILKRDNEDAEKLSDGIRIAIRKGIVSGKPDVSPVNKLNVVGLSAQEVTDKIVAALPSKNGNVIILQGLSGTGKGTTVSKLKDALPKCVTWSNGNIFRSYTYLCNEVLAAQGKEITEESLTDELLSSVEKRVTFVKCEDGMFHTMLDGTRRVADVQNTLLKTPLISSKVPTVAQQTQGEVIRFGAGAVKQLSADGYNVILEGRSQTLDYISSPLRFELIIPDVEVLGQRRAAQRVMAKALEMLDDSASDEEVSKVLVKAVETLQ | soluble
MAHHHHHHMQRSMMRELCYVGSVALSPMRPKKNAFKLRERGETTRLFCANSEMSNFYGINESGFSNTRPPPYLLRFDKCNDVIAYTNEIDNESLKQIKNLAKLHIIKGHITILPDVHLGKGIIIGSVFLTKHFIIPNGVGVDIGCGVLCVKINKLKKKNLHEGVINNIYKKIKRNIPLSFDYHEKEVFDAKNVLDELVAKYASSNMAHIMNPKHLKQMGTLGGGNHFIEIAYDASGDVKAEPINGNLSGEAHQNDNTQKYACQQNHYPESDIYILIHSGSRNIGKSTAEFYDDLASHESKVKRNDLAYLDLRKKHGQNYLRDMQLCQEYAKYNRIYMMKIIEQIIKEELNCTLDWQNAINIHHNFCNHELVNYFHNGEVKKEYMYVTRKGATSSMKNQLGIIPGNMKVGSYIVRGKGNKLSYNSCSHGCGRVLSRTHAKKIINQADFVNIMKGVRCDTSAKIRDEATQAYKNLNKVLRNQDSLIHVVRRLLPLINVKGG | not soluble
MAHHHHHHMRAEIPGVVPAVVSQVSEHQLPHLYPRHTAVTDSTALPREKSTLQRTDTTDSQLFSLADLQLARGNTRRPSRSRPTSPIRKDRIPRPPSVEFDVHLEVPRPHIRVSALPKHVMWPLPIPLPNLGNTCYMNSVVQCLRQSPSLALALEQCQLNAESHPAAAAMLNFFRMSEGDPKEFLVTFKSEAAKYNDEFKDFTQADAHEFLRTFLSVVHNEINTAPRAKLHIDDMGYVGKEDEETAFGMWRDQFACFDKSPIYDLFGGTTLGTCFCNSCENSSRTFEAFLDLSLPIGHEMPFGANLEAILQANFVEGKAEKMDGSNRIYCSRCKRLRSGSRCVVVRQWPKLLVLHLKRFDEYGKKNLVNVIYPETFMTGGEKSLRYSLYGVLMHSGTEMSGHYTSYVRVAFGEWYLCNDGAITPSRSVDVMQELEKAYILFYAEVPQVEPTFF | not soluble
MAHHHHHHMRCVRVVCQRFVEFVTFCSGVVPPLALLGYPLPGSGCQKTHPTALSLKGARVGDADAGNADTWLSRAIPRNWAAFCVNLQARGVGLVTVGLSYGSPSVVVRQVLGWGCGGNELRLYGFCRSSVLCRVWGVSVPLSAFTPCSVDDSIFSLLRYRIFRACAS | not soluble
MAHHHHHHMRGCLHFTRVARHKRHDKGGNAHNFAFDTLTKVYRDAVYLPQEKYRRGLMHPERSPGAPPSQAALVAPSSSSDVTNHVGNIGVMSSVATKLSDWMEQQPHHQTKHHTNGGGGTGHASATASCATPIARRSVASSSPSPAPSAAAATTDESHVDDEAIRRRLRAHLFSDKIQPGQPRTPPSTPVATASASPRRSGVQAEILSVYRSMLREVSRMQDADTRRSLSAYIRQEYDKQCDIPRKNIMKIEWRLNYGKRKLEELQAMSKHTKFTMMR | not soluble
MAHHHHHHMRIHAPPYPFFNFLFLCFHTEPRRIPRRTVSYTQVVPASIFHGMADRALTCVRPAAYFLPGDRASSFLSSGAILLFEERVCTPHKASESTVCPVAGHSKVFAPSCYVEPFSIIEVALEERRNRVGRMSWCFRLFAIKLRGGNPTQFPPPASSVEHVQV | not soluble
MAHHHHHHMRLASPFSRAAWQLQETHNLSPLLRRRACAAPVAATSPSAFCTARRCLSQQASHWLNKLRYGADDAPTMGSWDSAYEDDAMDTRKLYCKALVHASGGSRLARDWIAGCAALTSPDPSLIYTALQHAATEADVEELREHILGRLLAQESPRRGGRSGGSCDNEVRTSFGMYEESEREVVVPGTGNVAVKRAVAPNCAGQSSIHERDGKDGASEATSPPITSEGIRDAEHYLLQRSREVRCFMYDAMTASLFHSNNDLRTVEAARRHTFWIGLTQFGLSFDELTALWRLVEAELLLKKEKIKVLGQPWGE | soluble
MAHHHHHHMRNLSDQFPVEDSPMNARRQMANGDDHSQRDSPMNHDVAHTYEGNTLDGHLTKAESASMTKTPTAAANGACANSAPSEYVVAKERLEAARAAHKQRLREIKDDKSLKIKSMPSLEELRDERVRLSEQVLHHKDEQDSLALDIEGLEGAAEVYQLAARVQRLEHFANRAYEYAEETLPRDIERTLEEDRQLSNRELCAYIQELQSKRANTLKKVVASQEGMVKRNLRKGATATTAALGEDADPMEAKAVAHTQENKDECVVLHQKIRRFCAMRTKLQSDILKEKSASKKMEERMCAAIRTAELANARDARMCGELNNRNAAATTNSQLLIDQLNVGHYGLGNAPSTKQLLEDRKAREALLETTETDQQQYGRFVSSGSLGSRQSYANSQSSHQRAIKPPLVASKPTAAQRARDDASRSSREEFAQMLRRNSDGNSYQASRSQSLSKPPLVASKPTASQQSRETALRGEREEVSVSRTVARSNSLFSDVRPPSLAAKSTASQRSRDRQ | not soluble
MAHHHHHHMRSNCAPLGRVKIRILDLTVLSEDASDFVYDGLYVVSRLGPDAQRTNILCNGADSAGGRCWNEVFMFHFEGNPPEFRETAPTLSKSGLDVTVGQHISTYHDGPSLGNPSREYILPQQPHEVKRGLLAPPWMGGSCALPAITLELWRYSLSSDDCLARYQFCIPLEMSSGNIADRVVRLASASSYSVQFALRIRVALSGYDGGALGFENYMPAMSPANLPVLWRH | not soluble
MAHHHHHHMSAMSSSDDAPPHQRLASEQSKRDSGAHVGAREHIHDAPTLSARARFLRELERYASDDDDYGGNGGAAVVGAGPMRQPNQANGAPQRRTAFPLVSATRAAAPSVGPSSSSDFFFGGEGGSHDEADDEDVGEDAVWSTASAASLARTLNGVPVTGSTSDIGTTGGSAAPSRVGLQLLHRMHALSTSGDRRSSGHDSAVHSAATRANVMIPQTSPTPTSSADFEVVHAYVPLSTGGFLSTANAAHDTMEGYQVRIGDVLSLRKPLSCTDPPPSSAVASAPASSPTTSTATPSIAALTLTTGSAAAGASATGSLVKDVAQKAMGHFKSAATFTSEEQKYGRKLTPDMVRLLFEVTRVDYQGRSIEALFLDGTRAKVSFFEVRPAGYVERKMYATWKADPSSRPVTIIHSNASSPTTSSAPNGAVMPSSVPSPALPPPPSVTAAAWWVIPRLLVRVTTEAAGDWYGKKCVVKAVQRSENRVRLAEWVEEGRSDGGESGSRSFHNCGKPTAATAETRELIGVDGLETVVPKKGGRAMVVLGSRRGEMCTVRNRVRGADGELTAVEVEISRTKEVMTLQAGELCALAR | soluble
MAHHHHHHMSAPKEGNRGESKEKFWLYAFRDHLANLRAFSNCIETADVNGVGDYQLLVADGSKRIKVYAGTSLQRELPLFGVPSAITSFFMDDADAFGKPVVAVATGPYIFMYRSNKPLYRFMVPPVPLNPQESAIWQDLATEALTVEEAVKQLESLLDSGVETSSRTLELLLETPEERGEFVSRLRSVPLIQMDVVCCLTSIPLNSLDEGGRSVLVIGTEAGFLYVLKHNAAEVALKVVLPRTPVFLIAAGCFEVDYRMVVACRDGRVYSIKQGNLQNAVIQPDAQPCAIARYNNLIAVATTANTLAYYNLKGKKQQSVFLPCSISGLSTINDTVTGEARGLVVALSNGEIRVYVGTQLHHVSLAYGTVTAMKFGRYGRSDGALVLVLQNGSLVVELLHRGVNLSCSKTVETGPPPQQDIPIPIPHLSSVFATQSSRERKHGVEMYQLFQYDLSQLRLTTAKAYLDMIANGSVPSELGNVTQENEGVAEPSLRLNAVVQGLGPVFKVKVQLQNVGEAPLHAVRVVFCLSEDNVYCMPQQIFLIPTLLPSVPLSCAAFVTTSEGEAKGNAILVVATGPKSRTPLARTLVDLPEVEAMAEV | not soluble
MAHHHHHHMSATRDGSRSHSDGGFDGRSLLSEQTKLLRESTPADINFIQFLKLRLSAQQRATAQRNYWQRVQREAADSMNANTAHRQGRGGISASVAPVSTSAAGRESEASSNHIGSGRRNWHAAGSAEGASFSTYDAEHMMLEHSTASFGTLSKQDAFTRATSHGAVPPPTVHQHSFEDLRAAVLKRRSTPASELTDFVAVSTAELSEDGNSSQRRPSGPLQEEDAYALAPFIASSYSAAAAAAIDERPAMACGKPQVPVDVDEMKDVALEPCPHCGRTFAPARLERHVVTCERHRNTLPKTKGDMKSCRAFSSRKKPDRTAGGDGAAASAAATANTAGAAPGGPLRWSTDTAIKPEKWRKQSAQLRNAMAGASVAVDDDRVLCPSCGRHFSDDVAARHIPICKSKGGRAA | not soluble
MAHHHHHHMSEGKRATSAAPEAKYNAYAEAADPDRYRVADALLFTCAEHGKACVLCVTAGKNGRSGRTAAVGATLFWLTCPNLNAIIARFEGHRCVQAVSAAMAQQPCLCDWHVQSHDVYASRAKDLLSPAQWCFFESHFLSDEQPSLHKYGNAAVSHASDMKCLHALVAQTLAGVANPVGSVVVNYILLQHKLVCEAADTGNTEQQGVEEKRLLMKATLNSTRLFSDFTTAFVRAASERPREDWHALHNVSFEVPLPEGNMWCKTAVQYMWQVDSQLAALCPDLCARALTVHVALGGPSRRRHKKHRMN | not soluble
MAHHHHHHMSGNDLLPLWIGTPQRGVTHDDTADPYTSKVGGQAVYFRLGASTAEQQSAGALSKYFQCPQCKSTAQVSLLCQVYAPLEVYDRVLYILTCAACTRRPRAAASLQGSVPAPALTTGTSKKSGLAAAARSHTSFCFALRSQNFSREHFAELQKQLRAEAQRATEDEKEKAENDAPLFGGGDDDWGDDADDWGTEEGPVKEAKPSPAEPLDDAGDKNGALEKTPNELPEFPLASRGMTVPLKGTLYTSGLPLDLYEEPPPKQTKELSIEEQLAAAKSMYGSSAALDTSGFEEDDEAPEERCVREYMEHMERTPSQCVRWCLGGTPLRTSTTPIGVNGSSLPPPCPACGAVRQFEMQLTAPVVFYLTKDIGEAKNTALHFSNVLVYTCSSNCYNTNSNLPYLPEYVVVEDEL | not soluble
MAHHHHHHMSIDAGLCDRYVVFLDIDGVLLPVPKFTFGGGNLSGRCAQTLKRLIAALGGRDKVTLVLSSTWRNHPVMVDRLNTFMQKEAGDGIPVVSERTPNGTVLMSSVTYYADDPSEQRLVRDRVDEVYRWLHTHITDHPEAIGGRWFAIDDMQLDVDERMRGHFLHTQTDVGITEADVDTACAMIASHPSPTEAYAAAVAALADPALKAEEVEIQRVLQSRLEAQLAATTAELTEAQEKMAALSAEKKDLIKELAEKQRSIDDMRYRLAVYDFSKRYPCLATAVELAGTKSGAERRAMDAAIRTFVTLLMDRKELQKKMRSEAKKVKQAS | not soluble
MAHHHHHHMSITSRFIGGVKHLLKGGSMKYLAAGEPYCPFGEAFGLTILPEYILEDDASNLRKGYVDVYTRASDRIILNDGRFQLPPLPPASFMPLLERLEQDNVVPKSWLNNQTANLYEPGDFIRAHIDNLFVYDDIFAICSLGSNCLLRFVHVQNGEELDVMVPDRSVYIMSGPARYVYFHMVLPVEAQRFSLVFRRSIMESDGGF | not soluble
MAHHHHHHMSLITTICRHPLASKRFMIVFRNEEGEELPEIFELRTRYEAIAPIAKGAYGFVCAATDNDLVENFHMSPPEEYNDPSLSKEERLDIYESHTTVAVKKLRQLFEQNRPRMWLCATREIQLMMAFKHENVMSALDFFIPLGDCERMTYESVEYLRHNFDSVYIVMKKMEYTLREVLESSVFTTTDTQDECGKLSNGKITSSAGTEKHDDGAHDDINKSTARRNERIARCPQTHLVLHPLARDYRMFILYQLLRGVGYMHLCLVIHRDIKPENIMLDRNYNTRVCDFGQGRDAVATELDGVLQTFLDNCTQWYAAPETLTLANVSSPSGFVDQKTLHAADVWSIGCIAAEMVIGRPLFYCRHSGGVGQLNAIMGVLGKIPEEAAERILQHRDEDTQKLFESVMRREMQQHLHKPSTLRRLLQSPYGDVDEEEIRLIERLLCYDPSQRITIQEALQSNYFINEGYEPVIDPDDTATHVRAVEAKEVVDAVRGRRFLWSLFLKHHPEVEELMRVLEIRRNSSSTDSTEVPPPACV | soluble
